Measurements taken from the DeepSol protein solubility set.

Assay: soluble on expression in E. coli; label from the status in PepcDB or PDB records

| Sequence | soluble on expression in E. coli |
| --- | --- |
| MSLDEDAQISAVQDGFINFYADDAVTPYVALAARGPWVITLKGAVLYDAGGYGMLGFGHTPEAVLDAMARPQVMANVMTPSLAQRKLDRALRAEIGHTRGGCPFARFMCLNSGSEAVGLAARIVDTNAKLHTDPGARHAGATIKRLVVKGSFHGRTDRPGLYSDSSRKTYSKYLASYRDEDSVIAIAPYDIAALQRAFDEAARNHWFIEAVFLEPVMGEGDPGRALPAEFYAAARTLTRNHGSLLLVDSIQAGLRAHGVLSVVDYPGFEQLDPPDLETYSKALNAAQYPLSVLAVTEQAAQVYRKGTYGNTMTTNPRALDVACATLALFTPQIRDNIRLRGAQALRKLEALQAELGGLITKVQGTGLLFSCELAPQYKCYGAGSTEEWLRHHGVNVIHGGENSLRFTPHFGMDEAELDLLVGLIAKALKEGPRQAQAEAEGHHHHHH | not soluble |
| MGSDKIHHHHHHMLTTLAINNYRSLRDIRLPLGRLNLVTGANGSGKSNLYKALRLLAQTAQGGVVNALAQEGGLDSCFWAGPENLTKGMLSGDTEITPTVRQQTKRLKLGFAGDEFSYLIELGLPKPDNTTLFGLDPQIKREAIWVGNKYRPAAVLVERRGPMVKGRAQQRGQDGWQSLNQHMQHGDSIFTELSDPSRTPEVLRLRDSIRAWRFYDHFRSDSEAPARQPQLGTRTPVLHHDGRDLASAIQTIFEIGDRESFDEAVSDAFPGAHVTIGYQAGGLLSVNFHQQGLLRPLNAQELSDGTLRYLLLIAALLTPRPPELMVLNEPETSLHPDLLPALARLIAKATKVCQLWVVSHANRLINALNEFEQCQLIELDKQLGQTRIVGQDLLSTPGWNWQQKAQG | not soluble |
| MGSDKIHHHHHHMAGGSFMDDLRRGAGDLSVRASVREQDLNTYIMKVSCPARSGIVAAVSGYLARSGCNINDSSQFTDQETARFFMRLSFISEQGSGREALLDGFGSVAADFDMDYDIHDLSQKKKIVIMVSRFGHCLNDLLYRSRIGALPVEIVAVISNHLDYQKQVVNEDIPFHHIRVTPETKPEAEGAILQVVRDTGAELVVLARYMQVLSDQLCQEMSGRIINIHHSFLPSFKGANPYKQAYERGVRLIGATAHYVTADLDEGPIIEQDTIRVTHAQSGMDYVSLGRDVESQVLARAIHAHIHQRVFLNGNKTVVFPASPGEHVSERMG | not soluble |
| MMIDDSKVSFVIPTINEEGTIGSVIDGIRSEFPNSEIIVVDTNSTDRTREIARSKGARVIEEPRRGYGRAYQTGIPAASGEIIVCMDGDGTYPTDVVKPLIELLIADRVDFISCDRITFRTSKNYTTLHYVGNMVLNLTIRILFKVRMVDSQSGMWVFRSEIYRKMKNLGNGMSFSQNIKIEAVRHGVFMEIPIRYGVRITKPKLKTWHDGFHNLFALFVKRVSE | not soluble |
| MSLDFVIEMLGIRKEFSGFVANDNITLQLKQGEIHALLGENGAGKSTLMNVLFGLYEPDGGEIRVRGTKENINSPNKANELGIGMVHQHFMLVDKFTVAENIILGKEPSKLGVIEKKKAIEEIKEISDRYGLRVDPNAVVRDISIGMQQRVEILKTLYRGADILIFDEPTAVLTPQEIKELIQIMRSLIKEGKSIILITHKLKEIMDVCDRVTVIRRGKGMGTVNVPETTPQDLANLMVGREVVFTTEKIDAKPGKDVLEVKDLVVKESRGVESVRGLNLTVRAGEIVGIAGVDGNGQSELISAIAGLSKVTSGSILLNGEHIENKKPRKITEAGLGHIPEDRHKHGLVLEMSLGENIALQTYYKKPISSKGFLNHKAMYDFARELIEEYDVRASSEYVAAKSLSGGNQQKAIIAREIHRNPDFLIAAQPTRGLDVGAIEFIHRRLIEQRDNGKAVLLMSFELDEIMNVSDRIAVIYEGKIVAIVDPKETTEQELGLMMAGSSKQEAEMGEKEGHHHHHH | not soluble |
| MLIILTGLPSVGKSTFSKAFSKKMAEKNIDNIILGTDLIRESFPVWKESYEEFIRDSNNYLIKEALENKFSVIVDDTNYYNSKRRDLMNIAKECDTNYVTIYLKAPLNLLLKRNIERGQKIPNEVIKNMYEKFDTPGTKYAWDLPDITVDTTEKIDYNEILNEILEINENKNLKIEEDKIPKSEPVESDLVKIDSLTRNIVGNLIKTGKIDKKDIKLLSEIRKSFLKDCKKIESEKLDFEKIEKDFLDYLNKNLK | not soluble |
| MGSDKIHHHHHHMTLALGRLDSITLLLPDPELFLYSYVRREAVLSSQIEGTQSTLTQLMLFELEESPGVPFDDVVEVSNYVAALDHGVARLKEGFPLSNRLIREMHTVLLFRGRGSNKGPGEFRRSQNWIGGTRPGNALFVPPPPHLVPQCMADLERFLHDENNPYPSVLKAALAHVQFETIHPFLDGNGRIGRLLIAFILHHDGILSRPLLYLSLYFKRHRETYYRLLDRVRTEGDWEAWTDFFLEGVRETAGNAVDTARRLIALFEADQQKIQSLGRSASSTLQVFQAFKERPLLTVGRISERTGLSFPAANQAVGRMEKKLGIVREITGRRRERAYAYDQYVAILNEGAEE | not soluble |
| ERFQLLMTQIGLQDVTTYEEFTKDAKIEKLVADKKNKTWQFHLHVPQIFPAALFHMMDVGMKRAFSQIAETEMQIVPENQTINETLIQEYWNLIVEPIGKQSPMIGKLLMEQKPTFKEPHFIEVAVHNDMEEATIQQRFQAKIIEN | not soluble |
| MGSDKIHHHHHHMKDNPISPTIPLDQDGVHHGFLKLPYSRDDSAWGSVMIPITVIQNGAGKTALLTGANHGDEYEGPVALQELAATTRAEDVTGRLIIVPYFNYPAFRASARTSPIDRGNLNRAFPGRPDGTVTQKIADYFQRTLLPMADVAVDFHSGGKTLDFVPFAAAHILEDKVLQDACFAAMQAFNAPYSVQLLEIDSEGMYDTAVEEMGKVLVTTELGGGGMSTARSNAIAKKGLRNVLIHFGILQGEMQIDPSVTLDMPDGDCYLFSEHDGLFEIMIDLGEPVQEGDLVARVWSPDRTGEAPVEYRARRSGVLISRHFPGMIKSGDCAAVIGVVEG | not soluble |
| MAKVLCVLYDDPVDGYPKTYARDDLPKIDHYPGGQTLPTPKAIDFTPGQLLGSVSGELGLRKYLESNGHTLVVTSDKDGPDSVFERELVDADVVISQPFWPAYLTPERIAKAKNLKLALTAGIGSDHVDLQSAIDRNVTVAEVTYCNSISVAEHVVMMILSLVRNYLPSHEWARKGGWNIADCVSHAYDLEAMHVGTVAAGRIGLAVLRRLAPFDVHLHYTDRHRLPESVEKELNLTWHATREDMYPVCDVVTLNCPLHPETEHMINDETLKLFKRGAYIVNTARGKLCDRDAVARALESGRLAGYAGDVWFPQPAPKDHPWRTMPYNGMTPHISGTTLTAQARYAAGTREILECFFEGRPIRDEYLIVQGGALAGTGAHSYSKGNATGGSEEAAKFKKAV | soluble |
| GSHMTNDIYFMTLAIEEAKKAAQLGEVPIGAIITKDDEVIARAHNLRETLQQPTAHAEHIAIERAAKVLGSWRLEGCTLYVTLEPCVMCAGTIVMSRIPRVVYGADDPKGGCSGSLMNLLQQSNFNHRAIVDKGVLKEACSTLLTTFFKNLRANKKSTN | soluble |
| MFELDLRSRQPIYEQLIDKMKEMIVRELWQPHDQLPSVRTMAKQLMINPNTIQKAYRELERDGWIYSIPGKGSFVAPRSKEPNIEAIAAVREQFVRLVKEARFLGVTNEQLWQWIREGEERGGES | not soluble |
| MYEPKPEHRFTFGLWTVGNVGRDPFGDAVRERLDPVYVVHKLAELGAYGVNLHDEDLIPRGTPPQERDQIVRRFKKALDETGLKVPMVTANLFSDPAFKDGAFTSPDPWVRAYALRKSLETMDLGAELGAEIYVVWPGREGAEVEATGKARKVWDWVREALNFMAAYAEDQGYGYRFALEPKPNEPRGDIYFATVGSMLAFIHTLDRPERFGLNPEFAHETMAGLNFVHAVAQALDAGKLFHIDLNDQRMSRFDQDLRFGSENLKAAFFLVDLLESSGYQGPRHFDAHALRTEDEEGVWAFARGCMRTYLILKERAEAFREDPEVKELLAAYYQEDPAALALLGPYSREKAEALKRAELPLEAKRRRGYALERLDQLAVEYLLGVRG | soluble |
| MKQLYATIRFNGYEEAADKGDLAVHKLVAAALDDAEASLKDLFAQQIFGDGTGNSGKDLTGLKAYVDDGTAVAVYGGIDRATNPWWKANVKKSANNKVLDIKQMREVFAKCSRGGMENKPDFIVTDLNTWLQYAELVDGKTTIQQPLGKVAEEFANLGFAQLSFMGIPVVYDEYCPAYTMYFINSNTFQLYGKPGRMFTTSEIVKIPDEDSKVGQIFFAGEFVGTEPRANGRLDLTVS | not soluble |
| MKTITETLNLAPKGKNFLTADWPAPANVKTLITTRNGGVSQGAYQSLNLGTHVGDNPEAVRRNREIVQQQVGLPVAYLNQIHSTVVVNAAEALGGTPDADASVDDTGKVACAVMTADCLPVLFCDRAGTAVAAAHAGWRGLAGGVLQNTIAAMKVPPVEMMAYLGPAISADAFEVGQDVFDAFCTPMPEAATAFEGIGSGKFLADLYALARLILKREGVGGVYGGTHCTVLERDTFFSYRRDGATGRMASLIWLDGNAV | soluble |
| MSTLADQALHNNNVGPIIRAGDLVEPVIETAEIDNPGKEITVEDRRAYVRIAAEGELILTRKTLEEQLGRPFNMQELEINLASFAGQIQADEDQIRFYFDKTM | soluble |
| SNAIGLIITALPEPYWIVLHDRIVNVISSSSLTSETEWVGYPFRLFDFTACHQSYSEMSCSYTLALAHAVWHHSSIGQLSLIPKFLTEALLPVVKTEFQLLYVYHLVGPFLQRFQQERTRCMIEIGVAFYDMLLNVDQCSTHLNYMDPICDFLYHMKYMFTGDSVKEQVEKIICNLKPALKLRLRFITHISKMEPAVPPQALNSGSPAPQSNQVPASLPVTQ | soluble |
| PMILGYWNVRGLTHPIRLLLEYTDSSYEEKRYAMGDAPDYDRSQWLNEKFKLGLDFPNLPYLIDGSRKITQSNAIMRYLARKHHLCGETEEERIRADIVENQVMDNRMQLIMLCFNPDFEKQKPEFLKTIPEKMKLYSEFLGKRPWFAGDKVTYVDFLAYDILDQYHIFEPKCLDAFPNLKDFLARFEGLKKISAYMKSSRYLSTPIFSKLAQWSNK | soluble |
| MSEEIVLKAGGKIYQGWTKIGITRSLEAMSGAFDLEMTYKFLGNDAQYKAFIEPIKQGQACTVDIGGERVITGYVDDWVPSYDESTITISVSGRDKTADLVDCSIDYPSGQFNNQTLTQIADIVCKPFGIKVIVNTDVGEPFQRIQIEQGETPHELLARLAKQRGVLLTSDTFGNLVITRASKTKAGVSLILGDNVKAARGRFSWRQRFSKFTIKAAGAAHGQWDSAGLPTVGGIKADVTDSEIGRYRPLIIVNEEVTTAEGAAKRGQWERQRSIGKSNMAEYTVTGWRIPQTGKLWNINTLVPVIDEIMGLDEEMLIASILFSEDDAGRLAVISVVRPDAMDIPAQIVKDTKLGGSTW | soluble |
| MSLPKITKIEVQKKNKERFNLFLDEQFEMGIDIDTLVKFNLKKGQQLEAADMAEIQKYDHYRIGLNKAIQYLSYKKRTEKEVIQYLQKEEISEQAISEVIEYCYREKLIDHQDYAESLKNTMIRTTDKGPKIYQQKLYQLGIEPNIIEIFTELYREQQELDDIIQIAEKISKTKKGPQNKVKEKVMQSLIQKGFEMETIHAVLNEMDFTQDEAVLDDLLQRDLEKIYNKNRKKYTQQKLISKTIEGLMRKGYKYDKIKAKLEESGIADGTEEIEEGHHHHHH | soluble |
| MGSDKIHHHHHHMSSICQGTWDCQNCPKAVDNAIAHIIHPRGYHQPARKCEENFILFLIRGEVLVNSQEYAGTMLRAGEFILQAIGSKFEMLAMTECECIYYRFIQPELFCDFRFNHIMKEVSSPLIYSPLKIIPELKYFLDGSKSYLSESKVCRDLLSLKRKELAFVLGYYYSDYDLASLVHPLSKYTSTFQYFILQNYKKVKTVEELAQLGGYTVSTLRRIFNNVFHEPVYEWMQARRKEGILDELLNTNNSISEICYKYGFESLPHFSNFCKKFFGASPRMLRTNKKTI | not soluble |
